Like-named read-outs stand apart in the source and are kept apart here. One block for each binder: values may come before it.
Columns and labels:
[1] = target: T1, full length human PD-L1 on cells (human, UniProt Q9NZQ7 19-290); test: cell-based or functional assay
[2] = target: T2, full length cyno PD-L1 on cells (cyno, UniProt G7PSE7 19-290); test: FACS CHO-K1-cPD-L1, 30 nM mAb
T2 construct: also called CHO-K1-cPD-L1

[3] = target: T3, recombinant His-tagged hPD-L1 ECD protein (human, UniProt Q9NZQ7 19-239); test: SPR Biacore T200, mAb captured by anti-human Fc, His-tagged hPD-L1 ECD as analyte, 1:1 model
T3 construct: also called His-tagged human PD-L1 ECD protein; His-tagged PD-L1^ECD; not shown: His tag
T3 sequence (Q9NZQ7 19-239): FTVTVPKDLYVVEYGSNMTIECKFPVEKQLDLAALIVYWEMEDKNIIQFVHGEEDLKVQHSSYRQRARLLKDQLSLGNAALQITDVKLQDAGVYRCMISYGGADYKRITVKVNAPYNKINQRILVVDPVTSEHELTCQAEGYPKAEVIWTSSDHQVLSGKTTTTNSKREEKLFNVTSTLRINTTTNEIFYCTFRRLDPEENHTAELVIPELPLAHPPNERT
Protocol: Anti-human Fc IgG was immobilized on flow cells 1 and 2: HBS-EP+ (10 mM HEPES, 150 mM NaCl, 3 mM EDTA, 0.05% P20, pH 7.4) was used as miming buffer, and the immobilization of anti-human Fc IgG was carried out using the immobilization wizard template. Flow cells 1 and 2 of a Series S CM5 sensor chip were activated with freshly-mixed 50 mmol/L NHS and 200 mmol/L EDC. 20 μg/mL of anti-human Fc IgG diluted in 10 mM NaAC (pH 4.5) was injected into the activated flow cells 1 and 2. The remaining active coupling sites were blocked with 1M ethanolamine.
KD measurements were carried out with HBS-EP+ as the running buffer. Each antibody was injected over the CM5 sensor flow cell 2 with a flow rate of 10 μL/min to reach response 230 RU. […] Buffer flow was maintained for 400 seconds for dissociation measurements (30 μL/min). To remove the tested antibody from the surface, 10 mM glycine-HCl pH 1.5 was injected for 20 seconds (30 μL/min). Flow cell 1 was used as reference flow cell. The above steps were repeated for each concentration of serially-diluted His-tagged PD-L1^ECD protein. The KD value for each antibody was evaluated using Biacore T200 evaluation software 1.0, and the data was fit with a 1:1 binding model.

[4] = target: T1, full length human PD-L1 on cells; test: FACS CHOK1-hPD-L1, 0.03 nM mAb
[5] = target: T2, full length cyno PD-L1 on cells; test: FACS CHO-K1-cPD-L1, 0.03 nM mAb
[6] = target: T1, full length human PD-L1 on cells; test: FACS CHOK1-hPD-L1, 0.003 nM mAb
[7] = target: T4, human PD-L1^ECD-hFc protein (human, UniProt Q9NZQ7 19-239, biotinylated in the PD-1 binding ELISA (Table 3) and in the Octet assay (Table 12)); test: ELISA receptor-ligand blocking assay: PD-L1 protein coated, fully human antibody titrated, blocked ligand PD-1, inhibition rate (%)
T4 construct: The plain and the biotinylated protein are kept as one molecule; also called PD-L1-hFc; Immunogen A; not shown: human IgG Fc fragment (hFc)
T4 sequence (Q9NZQ7 19-239): as above

[8] = target: T2, full length cyno PD-L1 on cells; test: FACS CHO-K1-cPD-L1, 300 nM mAb
[9] = target: T2, full length cyno PD-L1 on cells; test: FACS CHO-K1-cPD-L1, 0.3 nM mAb
[10] = target: T1, full length human PD-L1 on cells; test: FACS CHOK1-hPD-L1, 0.3 nM mAb
[11] = target: T1, full length human PD-L1 on cells; test: FACS CHOK1-hPD-L1, 300 nM mAb
[12] = target: T1, full length human PD-L1 on cells; test: FACS CHOK1-hPD-L1, 0.0003 nM mAb
[13] = target: T2, full length cyno PD-L1 on cells; test: FACS CHO-K1-cPD-L1, 0.0003 nM mAb
[14] = target: T2, full length cyno PD-L1 on cells; test: FACS CHO-K1-cPD-L1, 3 nM mAb
[15] = target: T1, full length human PD-L1 on cells; test: FACS CHOK1-hPD-L1, 3 nM mAb
[16] = target: T1, full length human PD-L1 on cells; test: FACS CHOK1-hPD-L1, 30 nM mAb
[17] = target: T1, full length human PD-L1 on cells; test: cell-based or functional assay; remark: listed apart in the source
[18] = target: T2, full length cyno PD-L1 on cells; test: FACS CHO-K1-cPD-L1, 0.003 nM mAb
[19] = target: T1, full length human PD-L1 on cells; test: cell-based or functional assay; remark: listed apart in the source
[20] = target: T4, human PD-L1^ECD-hFc protein; test: ELISA receptor-ligand blocking assay: PD-L1 protein coated, fully human antibody titrated, blocked ligand B7.1, inhibition rate (%)
[21] = target: T1, full length human PD-L1 on cells; test: cell-based or functional assay; remark: listed apart in the source
[22] = target: T1, full length human PD-L1 on cells; test: cell-based or functional assay; remark: listed apart in the source

T2 sequence (G7PSE7 entry or part of it limits assumed): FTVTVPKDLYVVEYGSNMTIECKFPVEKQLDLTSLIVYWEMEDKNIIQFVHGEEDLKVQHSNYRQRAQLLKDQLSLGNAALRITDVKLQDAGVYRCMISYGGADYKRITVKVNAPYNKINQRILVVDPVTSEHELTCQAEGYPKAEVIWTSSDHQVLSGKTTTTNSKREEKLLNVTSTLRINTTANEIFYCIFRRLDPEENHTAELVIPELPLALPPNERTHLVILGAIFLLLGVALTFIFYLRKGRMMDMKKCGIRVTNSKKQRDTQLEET
T1 sequence (Q9NZQ7 19-290 limits assumed): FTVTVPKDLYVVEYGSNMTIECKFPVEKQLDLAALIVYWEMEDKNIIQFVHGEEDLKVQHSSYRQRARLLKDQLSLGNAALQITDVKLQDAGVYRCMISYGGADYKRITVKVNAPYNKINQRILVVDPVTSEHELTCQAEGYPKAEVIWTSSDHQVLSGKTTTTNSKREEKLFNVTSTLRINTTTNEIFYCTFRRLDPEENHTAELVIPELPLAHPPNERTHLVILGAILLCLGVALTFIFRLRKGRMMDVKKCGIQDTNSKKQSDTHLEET

IL-2 (pg/mL), MLR, 0.001 µg/mL mAb [1]: 210 pg/mL | IL-2 (pg/mL), MLR, 0.01 µg/mL mAb [1]: 283 pg/mL | IL-2 (pg/mL), MLR, 0.1 µg/mL mAb [1]: 730 pg/mL | IL-2 (pg/mL), MLR, 1 µg/mL mAb [1]: 736 pg/mL | IL-2 (pg/mL), MLR, 10 µg/mL mAb [1]: 842 pg/mL | Mean fluorescence intensity [2]: 529 | Kd [3]: 0.643 nM | koff [3]: 0.000472 s⁻¹ | kon [3]: 734000 M⁻¹ s⁻¹ | Mean fluorescence intensity [4]: 36.5 | Mean fluorescence intensity [5]: 64.1 | Mean fluorescence intensity [6]: 10.4 | IC50 (read off the curve) [7]: ~0.7 nM | Mean fluorescence intensity [8]: 538 | Mean fluorescence intensity [9]: 243 | Mean fluorescence intensity [10]: 217 | Mean fluorescence intensity [11]: 633 | Mean fluorescence intensity [12]: 6.53 | Mean fluorescence intensity [13]: 5.47 | Mean fluorescence intensity [14]: 521 | Mean fluorescence intensity [15]: 619 | Mean fluorescence intensity [16]: 620 | IFN-γ (pg/mL), T cell stimulation assay, 0.001 µg/mL mAb [17]: 4030 pg/mL | IFN-γ (pg/mL), T cell stimulation assay, 0.01 µg/mL mAb [17]: 9200 pg/mL | IFN-γ (pg/mL), T cell stimulation assay, 0.1 µg/mL mAb [17]: 9840 pg/mL | IFN-γ (pg/mL), T cell stimulation assay, 1 µg/mL mAb [17]: 9960 pg/mL | IFN-γ (pg/mL), T cell stimulation assay, 10 µg/mL mAb [17]: 12500 pg/mL | Mean fluorescence intensity [18]: 8.94 | IFN-γ (pg/mL), MLR, 0.001 µg/mL mAb [19]: 1080 pg/mL | IFN-γ (pg/mL), MLR, 0.01 µg/mL mAb [19]: 1650 pg/mL | IFN-γ (pg/mL), MLR, 0.1 µg/mL mAb [19]: 3010 pg/mL | IFN-γ (pg/mL), MLR, 1 µg/mL mAb [19]: 3760 pg/mL | IFN-γ (pg/mL), MLR, 10 µg/mL mAb [19]: 3400 pg/mL | IC50 (read off the curve) [20]: ~0.7 nM
B1: fully human anti-PD-L1 antibody 78A11F6 (antibody, human IgG4 S228P, kappa, V domains shown)
VH: EVQLVESGGGLVQPGGSLRLSCAASGITFSSYWMSWVRQTPGKGLEWVANIKQDGSEKYYVKSVKGRFTISRDNAKNSLYLQMNSLRAEDTAVYYCVRDRAVPGTGAFDIWGQGTMVIVSS
VL: DIQMTQSPSTLSASVGDRVTITCRASQSISNWLAWYQQKPGKAPKLLIYKASSLESGVPSRFSGSGSGTEFTLTISSLQPDDFATYYCQQYDSSLFTFGQGTKLEIKR
notes: also called 78A11F6 (fully human)

IL-2 (pg/mL), MLR, 0.001 µg/mL mAb [21]: 43 pg/mL | IL-2 (pg/mL), MLR, 0.01 µg/mL mAb [21]: 92.2 pg/mL | IL-2 (pg/mL), MLR, 0.1 µg/mL mAb [21]: 118 pg/mL | IL-2 (pg/mL), MLR, 1 µg/mL mAb [21]: 148 pg/mL | Mean fluorescence intensity [2]: 335 | Mean fluorescence intensity [4]: 23.1 | Mean fluorescence intensity [5]: 18.8 | Mean fluorescence intensity [6]: 7.3 | IC50 (read off the curve) [7]: ~2 nM | Mean fluorescence intensity [8]: 299 | Mean fluorescence intensity [9]: 107 | Mean fluorescence intensity [10]: 116 | Mean fluorescence intensity [11]: 382 | Mean fluorescence intensity [12]: 6.61 | Mean fluorescence intensity [13]: 5.31 | Mean fluorescence intensity [14]: 375 | Mean fluorescence intensity [15]: 435 | Mean fluorescence intensity [16]: 380 | Mean fluorescence intensity [18]: 9.85 | IFN-γ (pg/mL), MLR, 0.001 µg/mL mAb [19]: 1880 pg/mL | IFN-γ (pg/mL), MLR, 0.01 µg/mL mAb [19]: 2580 pg/mL | IFN-γ (pg/mL), MLR, 0.1 µg/mL mAb [19]: 4930 pg/mL | IFN-γ (pg/mL), MLR, 1 µg/mL mAb [19]: 4280 pg/mL | IFN-γ (pg/mL), MLR, 10 µg/mL mAb [19]: 5260 pg/mL | IC50 (read off the curve) [20]: ~2 nM
B2: fully human anti-PD-L1 antibody 105C5D7 (antibody, V domains shown)
VH: EVQLVESGGGLVQPGGSLRLSCAASGFTFSSYWMSWVRQAPGKGLEWVANIKQDGNEKYYVDSVKGRFTISRDNAKNSLYLQMNSLRAEDTAVYYCARNIKWGDAFDIWGQGTMVTVSS
VL: DIQMTQSPSSLSASVGDRVTITCRASQSISSYLNWYQQKPGKAPKLLIYAASSLQSGVPSRFSGSGSGTDFTLTISSLQPEDFAIYSCQQSYSIPLTFGGGTKVEIKR
notes: also called 105C5D7 (fully human)

IL-2 (pg/mL), MLR, 0.001 µg/mL mAb [1]: 205 pg/mL | IL-2 (pg/mL), MLR, 0.01 µg/mL mAb [1]: 218 pg/mL | IL-2 (pg/mL), MLR, 0.1 µg/mL mAb [1]: 563 pg/mL | IL-2 (pg/mL), MLR, 1 µg/mL mAb [1]: 716 pg/mL | IL-2 (pg/mL), MLR, 10 µg/mL mAb [1]: 791 pg/mL | IL-2 (pg/mL), MLR, 0.001 µg/mL mAb [21]: 59.7 pg/mL | IL-2 (pg/mL), MLR, 0.01 µg/mL mAb [21]: 83.4 pg/mL | IL-2 (pg/mL), MLR, 0.1 µg/mL mAb [21]: 114 pg/mL | IL-2 (pg/mL), MLR, 1 µg/mL mAb [21]: 139 pg/mL | Mean fluorescence intensity [2]: 519 | Kd [3]: 0.536 nM | koff [3]: 0.000757 s⁻¹ | kon [3]: 1.41e+06 M⁻¹ s⁻¹ | Mean fluorescence intensity [4]: 28.6 | Mean fluorescence intensity [5]: 26.2 | Mean fluorescence intensity [6]: 7.6 | IC50 (read off the curve) [7]: ~1 nM | Mean fluorescence intensity [8]: 512 | Mean fluorescence intensity [9]: 174 | Mean fluorescence intensity [10]: 193 | Mean fluorescence intensity [11]: 602 | Mean fluorescence intensity [12]: 4.68 | Mean fluorescence intensity [13]: 4.87 | Mean fluorescence intensity [14]: 495 | Mean fluorescence intensity [15]: 576 | Mean fluorescence intensity [16]: 595 | IFN-γ (pg/mL), MLR, 0.001 µg/mL mAb [22]: 12500 pg/mL | IFN-γ (pg/mL), MLR, 0.01 µg/mL mAb [22]: 10000 pg/mL | IFN-γ (pg/mL), MLR, 0.1 µg/mL mAb [22]: 21000 pg/mL | IFN-γ (pg/mL), MLR, 1 µg/mL mAb [22]: 21500 pg/mL | IFN-γ (pg/mL), MLR, 10 µg/mL mAb [22]: 21400 pg/mL | IFN-γ (pg/mL), T cell stimulation assay, 0.001 µg/mL mAb [17]: 4450 pg/mL | IFN-γ (pg/mL), T cell stimulation assay, 0.01 µg/mL mAb [17]: 10600 pg/mL | IFN-γ (pg/mL), T cell stimulation assay, 0.1 µg/mL mAb [17]: 12300 pg/mL | IFN-γ (pg/mL), T cell stimulation assay, 1 µg/mL mAb [17]: 12300 pg/mL | IFN-γ (pg/mL), T cell stimulation assay, 10 µg/mL mAb [17]: 14000 pg/mL | Mean fluorescence intensity [18]: 7.84 | IFN-γ (pg/mL), MLR, 0.001 µg/mL mAb [19]: 957 pg/mL | IFN-γ (pg/mL), MLR, 0.01 µg/mL mAb [19]: 1080 pg/mL | IFN-γ (pg/mL), MLR, 0.1 µg/mL mAb [19]: 1990 pg/mL | IFN-γ (pg/mL), MLR, 1 µg/mL mAb [19]: 3040 pg/mL | IFN-γ (pg/mL), MLR, 10 µg/mL mAb [19]: 2590 pg/mL | IC50 (read off the curve) [20]: ~1 nM
B3: fully human anti-PD-L1 antibody 73D3G2 (antibody, human IgG4 S228P, kappa, V domains shown)
VH: EVQLVESGGGLVQPGGSLRLSCAASGFTFNTYWMNWVRQAPGRGLEWVANIKQDGGEKYYVDSVKGRFTISRDNAKNSLYLQMNSLRAEDTAMYYCARDGRSWYPDAFDIWGQGTVVTVSS
VL: DIQMTQSPSTLSASVGDRVTITCRASQSISTWLAWYQQKLGKAPKLLIYEVSILESGVPSRFSGSGSGTEFTLTISSLQPDDFATYYCQQYHSFSSFGGGTRVEIKR
notes: also called 73D3G2 (fully human)

From patent US20190010233A1 (JIANGSU HYAMAB PHARMACEUTICAL, published 2019)
